# Source: patent publication EP4670742A1, “ANTI-CD79B ANTIBODY DRUG CONJUGATES” (priority 2024, dated 2025)
# T1: Human CD79b (AA 29-159)-6-His (Homo sapiens, UniProt P40259)
# T1 construct: 6-His (C)
# T1 sequence (P40259 29-159): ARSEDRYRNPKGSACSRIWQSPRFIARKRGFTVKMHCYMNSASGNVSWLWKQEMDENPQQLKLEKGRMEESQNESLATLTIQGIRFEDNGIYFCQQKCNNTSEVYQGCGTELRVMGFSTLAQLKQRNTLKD
# T2: Human CD79b (AA 29-159)-6-His (human, UniProt P40259 29-159)
# T2 construct: range 29-159; No linker between CD79b and the tag is stated
# T2 sequence: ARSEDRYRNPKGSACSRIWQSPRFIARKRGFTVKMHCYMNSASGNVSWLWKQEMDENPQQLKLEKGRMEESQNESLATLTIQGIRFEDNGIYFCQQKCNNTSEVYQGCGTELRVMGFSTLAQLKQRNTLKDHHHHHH
# B1: ADC-1 (antibody, human IgG1, kappa, V domains shown)
# VH: EVQLVESGGGLVQPGGSLRLPCAASGFTFYNYWITWIRQAPGKGLEWVANINQAGSEKSYLDAVKGRFTISRDNAKNSVYLQMNSLRVEDTAVYYCAGGFRAFDIWGQGTMVTVSS
# VL: DFVLTQSPLSLSVTPGEPASISCRSSQSLLHSSGESYLDWFLQRPGQSPQVLIYLGSHRASGAPDRFSGSGSGTDFTLKISRVEAEDVGVYYCMQALQTPLTFGGGTRVEIKR
# modifications: Top1i linker drug LD1 (formula III) linked via sulfhydryl groups of cysteine residues; n is 6 for the whole antibody (DAR = 6.05); conjugated positions and split between the chains not stated
# notes: Antibody drug conjugate of Ab1 (IgG1, human kappa); also called anti-CD79b Top1i ADC; anti-CD79b ADC of formula (IV) with Ab1, n is 6
# What was measured:
# [1] = molecular target: T1, Human CD79b (AA 29-159)-6-His; assay: Binding affinity to recombinant human CD79b (ka, kd, KD)
# Excerpt: The binding ligand used in the assay was recombinant human CD79b having the amino acid sequence of Ala29-Asp159 of human CD79b, which was fused with a 6-His tag at the C terminus. Table 3 provides the measured association rate (ka), dissociation rate (kd), and equilibrium dissociation constant (KD). Table 3: Binding Affinity
# [2] = system: DLBCL GCB CDX (OCI Ly19) Tumors; assay: In vivo growth inhibition of xenografted tumors
# Excerpt: Based on an endpoint of 1000 mm3.
# [3] = molecular target: T2, Human CD79b (AA 29-159)-6-His; assay: kinetic binding assay, method not named; recombinant human CD79b (29-159)-6-His
Molecule,ka ([1]; association rate),kd ([1]; dissociation rate),Kd ([1]; equilibrium dissociation constant),"tumor growth inhibition and tumor growth delay ([2]; FIG. 2, compared to vehicle controls, all dose levels tested)","CR (%) ([2]; dose 3x, control Vehicle)","PR (%) ([2]; dose 3x, control Vehicle)","TR (%) ([2]; dose 3x, control Vehicle)","TGD (%) ([2]; dose 3x, control Vehicle, end of study)","CR (%) ([2]; dose 3x, control Vehicle, listed as polatuzumab vedotin-piiq)","TGI (%) ([2]; dose 3x, single bolus intraperitoneally on day zero, control Vehicle, day 10 post dosing)",Kd [3],koff [3],kon [3]
Polatuzumab vedotin-piiq,1.7e+07 M⁻¹ s⁻¹,0.0087 s⁻¹,5 nM,statistically significant,No CRs,0%,0%,90%,0%,84%,,,
Polatuzumab vedotin-piiq (antibody),,,,,,,,,,,5 nM,0.0087 s⁻¹,1.7e+07 M⁻¹ s⁻¹
B1,,,,,,,,,,,4 nM,0.00068 s⁻¹,170000 M⁻¹ s⁻¹
